Patent publication US20210246217A1 (LEADARTIS S L, published 2021)

T1: human CEA (hCEA) (human, UniProt P06731 35-685, limits assumed)
T1 construct: also called carcinoembryonic antigen
T1 sequence (looked up): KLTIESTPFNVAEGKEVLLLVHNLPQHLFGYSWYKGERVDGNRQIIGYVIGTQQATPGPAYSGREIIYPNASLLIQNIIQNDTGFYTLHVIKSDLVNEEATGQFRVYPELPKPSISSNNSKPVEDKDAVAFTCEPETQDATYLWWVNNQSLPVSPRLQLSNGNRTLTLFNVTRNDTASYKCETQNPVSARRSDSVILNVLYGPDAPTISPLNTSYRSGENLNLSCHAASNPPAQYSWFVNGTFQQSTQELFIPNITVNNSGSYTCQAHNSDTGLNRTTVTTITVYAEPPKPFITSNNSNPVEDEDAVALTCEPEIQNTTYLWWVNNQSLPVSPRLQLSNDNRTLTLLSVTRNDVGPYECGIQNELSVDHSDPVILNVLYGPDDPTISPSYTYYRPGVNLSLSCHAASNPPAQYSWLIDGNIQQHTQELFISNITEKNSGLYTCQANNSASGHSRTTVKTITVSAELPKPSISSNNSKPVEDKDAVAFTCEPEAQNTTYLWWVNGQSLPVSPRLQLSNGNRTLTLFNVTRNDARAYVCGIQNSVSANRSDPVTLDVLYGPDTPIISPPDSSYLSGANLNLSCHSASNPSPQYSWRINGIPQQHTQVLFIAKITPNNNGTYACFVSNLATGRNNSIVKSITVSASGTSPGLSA

T2: recombinant mouse TNFSF9 (4-1BBL) (mouse, UniProt P41274 104-309, limits assumed)
T2 construct: It was detected through a tag in FACS and carried the CF488A label in RICS; also called m4-1BBL; recombinant soluble mouse 4-1BBL
T2 sequence (looked up): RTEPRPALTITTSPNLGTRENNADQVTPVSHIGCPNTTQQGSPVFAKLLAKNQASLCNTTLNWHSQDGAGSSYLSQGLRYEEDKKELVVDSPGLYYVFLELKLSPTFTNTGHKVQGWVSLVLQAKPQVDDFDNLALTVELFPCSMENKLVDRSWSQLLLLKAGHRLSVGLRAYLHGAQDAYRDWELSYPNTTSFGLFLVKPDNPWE


Tests used:
[1] = target: murine 4-1BB on the cell surface (mouse) (UniProt P20334); assay: cell-based or functional assay
[2] = target: T1, human CEA (hCEA); assay: BLI, m4-1BB-coated biosensors, hCEA in solution
Procedure: FIG. 26. Functional characterization of purified 1D8^{N/C}CEA.1 trimerbody. Biolayer interferometry (BLI)-derived sensorgrams from the interactions between immobilized m4-1BB and 1D8^{N/C}CEA. 1 at 4 or 2 nM. Experimental responses are traced in black, and fitting curves are in gray (A). […] 1 bispecificity towards biosensors coated with m4-1BB and hCEA in solution (B and C). Following association with either 1D8^{N/C}CEA.1 or 1D8^N18 (sample indicated with arrows) or kinetics buffer only (sample indicated with arrows), biosensors were transferred into 50 nM of hCEA (black and red) or kinetics buffer only (blue and green).
The ability of 1D8^{N/C}CEA.1 to bind biosensor-immobilized m4-1BB and hCEA in solution at the same time was investigated using biolayer interferometry (BLI) on an Octet RED96 system (Fortebio, Menlo Park, Calif., USA). AR2G biosensors (Fortebio) were activated using s-NHS and EDC, and then coated with 10 μg/mL m4-1BB in 10 mM sodium acetate at pH 6 for 20 minutes, followed by quenching with ethanolamine. After 10 minutes of equilibration in kinetics buffer (PBS with 0.1% BSA and 0.05% Tween20), the coated biosensors were incubated in kinetics buffer containing 4 nM of 1D8^N18, 1D8^{N/C}CEA. 1, or only kinetics buffer for one hour. […]

[3] = target: T2, recombinant mouse TNFSF9 (4-1BBL); assay: competition ELISA on immobilized m4-1BB
Procedure: Both m4-1BB (3 μg/ml) or hEGFR (5 μg/ml) were immobilized on Maxisorp ELISA plates (NUNC Brand Products, Roskilde, Denmark) overnight at 4° C. After washing and blocking with 200 μl PBS-5% BSA, 100 μl of conditioned media or purified protein solution at 1 μg/ml were added and incubated for 1 hour at room temperature. The wells were washed for three times with PBS0.05% Tween-20, and 100 μl of anti-c-myc mAh or anti-FLAG mAh were added for 1 hour incubation at room temperature. The plate was washed as above described and 100 μl of HRP-conjugated goat anti-mouse IgG were added to each well. Afterwards, the plate was washed and developed using OPD (Sigma-Aldrich). For competition ELISA, m4-1BB (3 μg/ml) was immobilized overnight at 4° C. After washing and blocking, recombinant m4-1BBL was added at desired concentration to the wells for 1 hour. Afterwards, purified antibody solution was serially diluted in blocking buffer, added to the wells and incubated for 1 hour at room temperature. Following standard washing steps, anti-FLAG mAh solution was added for 1 hour. After washing HRP-conjugated goat anti-mouse IgG was added and developed using OPD.

lateral mobility at the plasma membrane (diffusion coefficient, RICS), before clustering [1] | lateral mobility at the plasma membrane (diffusion coefficient, RICS), in clusters [1] | binding result [2] | binding result [3] | Molecule
1.5 µm^2/sec | 0.35 µm^2/sec | – | – | rat IgG2a anti-mouse 4-1BB (clone 1D8) (antibody)
– | – | no binding (tested: 50 nM of hCEA) | binds | mouse 4-1BB:hFc chimera (m4-1BB) (Fc fusion, UniProt P20334 24-187, looked up, Bought from R&D Systems; also called murine 4-1BB in fusion with human Fc; not shown: human Fc) VQNSCDNCQPGTFCRKYNPVCKSCPPSTFSSIGGQPNCNICRVCAGYFRFKKFCSSTHNAECECIEGFHCLGPQCTRCEKDCRPGQELTKQGCKTCSLGTFNDQNGTGVCRPWTNCSLDGRSVLKTGTTEKDVVCGPPVVSFSPSTTISVTPEGGPGGHSLQVL
